Experimental findings from the nanobody polyreactivity screen of Harvey et al. (2022) are described below.

A short description of the data set: yeast display, Sf9 membrane polyspecificity reagent, FACS + sequencing; frameworks hold sequencing errors. In a few lines:
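Sorting gates, low and high (top ~1%), were placed on anti-HA fluorescence to track expression and on streptavidin fluorescence to track reagent binding. A clone's polyreactivity label is taken from the gate it came out of. The reagent was 10% biotinylated, detergent-solubilized Sf9 membrane, applied for 1 hour at 4 °C to galactose-induced yeast display cells.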
Consider “QVQLVESGGGLVQAGGSLRLSCAASGRTFVSNAMGWYRQAPGKERELVATITVSSDSTYYADSVKGRFTISRDNAKNTVYLQMNSLKPEDTAVYYCAARNPTWSFQFDYWGQGTQVTVSS”, for which the “polyreactivity (PSR sort gate)” value is given as “low polyreactivity”.

Consider “QVQLVESGGGLVQAGGSLRLSCAASGRTFVSYAMGWSRQAPGKERELVATITGSTGGTYYADSVKGRFTISRDNAKNTVYLQMNSLKPEDTAVYYCNKDYYYNPGNVASGYDYWGQGTQVTVSS”, for which the “polyreactivity (PSR sort gate)” value was “low polyreactivity”.

Turning to “QVQLVESGGGLVQAGGSLRLSCAASGRTFVSYAMGWYRQAPGKERELVAGITWRGGSTYYADSVKGRFTISRDNAKNTVYLQMNSLTPEDTAVYYCAKRSVLYGNRIFDYWGQGTQVTVSS”, the “polyreactivity (PSR sort gate)” value is reported as “high polyreactivity”.

With “QVQLVESGGGLVQAGGSLRLSCAASGRTFVSYDMGWYRQAPGKERELVAAITYSGGSSTYYADSVKGRFTISRDNAKNTVYLQMNSLKPEDTAVYYCATDYSLSFELDYWGQGTQVTVSS”, the “polyreactivity (PSR sort gate)” value is on record as “low polyreactivity”.

Regarding “QVQLVESGGGLVQAGGSLRLSCAASGRTFVTYAMGWYRQAPGKERELVAAISKRGSRTYYADSVKGRFTISRDNAKNTVYLQMNSLKPEDTAVYYCNAYPYRTSYDYWGQGTQVTVSS”, the “polyreactivity (PSR sort gate)” value is on record as “high polyreactivity”.

Take “QVQLVESGGGLVQAGGSLRLSCAASGRTFVVNAMGWSRQAPGKERELVAAITRRGGITYYADSVKGRFTISRDNAKNTVYLQMNSLKPEDTAVYYCAADRSYYPDTRTTYGYNYWGQGTQVTVSS”: the “polyreactivity (PSR sort gate)” value is reported as “low polyreactivity”.

In the case of “QVQLVESGGGLVQAGGSLRLSCAASGRTFVVNAMGWYRQAPGKERELVARITNSGLTNYADSVKGRFTISRDNAKNTVYLQMNSLKPEDTAVYYCNAAASYYVMLSWTRVYYWGQGTQVTVSS”, the “polyreactivity (PSR sort gate)” value is recorded as “high polyreactivity”.

For the sequence “QVQLVESGGGLVQAGGSLRLSCAASGRTFVVYAMGWYRQAPGKERELVAVIRVIGGSTNYADSVKRRFTISRDNAKNTVYLQMYSLKPEDTAVYYCAAAWSHSRWDTHDYWGQGTQVNVSS”, the “polyreactivity (PSR sort gate)” value is given as “low polyreactivity”.

“QVQLVESGGGLVQAGGSLRLSCAASGRTFVVYAMGWYRQAPGKERELVAVISFTGDSTFYADSVKGRFTISRDNGKNTVYLQMNSLKPEDTAVYYCAADFRRVFSKYSYYLYFDFDYWGQGTLVTVSS”: the “polyreactivity (PSR sort gate)” value is listed as “low polyreactivity”.

With “QVQLVESGGGLVQAGGSLRLSCAASGRTFVWNAMGWYRQAPGKERELVAAIDWSGGSTYYADSVKGRFTISRDNAKNTVYLQMNSLKPEDSAVYYCAKEYWYRALWYNYWGQGTQVTVSS”, the “polyreactivity (PSR sort gate)” value was “high polyreactivity”.

“QVQLVESGGGLVQAGGSLRLSCAASGRTFVWYAMGWYRQAPGKERELVAAITLSGGSTYYADSVKGRFTISRDNAKNTVYLQMNSLKPEDTAVYYCAADGTYRPEDYDYWGQGTQVTVSS”: the “polyreactivity (PSR sort gate)” value is “low polyreactivity”.

For “QVQLVESGGGLVQAGGSLRLSCAASGRTFVYNAMGWSRQAPGKERELVAAITSGGSTYYADSVKGRFTISRDNAKNTVYLQMNSLKPEDTAVYYCAAYKRGYYWGQGTQVTVSS”, the “polyreactivity (PSR sort gate)” value was “high polyreactivity”.

Regarding “QVQLVESGGGLVQAGGSLRLSCAASGRTFVYNAMGWYRQAAGKEWELVAAISSDGASTYYADSVKGRFTISRDNAKNTAYLQMNSLKPEDTAVYYCAADFSYYSYEHYYWGQGTQVTVSS”, the “polyreactivity (PSR sort gate)” value is reported as “low polyreactivity”.

In the case of “QVQLVESGGGLVQAGGSLRLSCAASGRTFVYNAMGWYRQAPGKERELVAAIDGGGDRTYYADSVKGRFTISRDNAKNTVYLQMNSLKPEDTAVYYCNARWQEPLKYDYWGQGTQVTVSS”, the “polyreactivity (PSR sort gate)” value is “low polyreactivity”.

On to “QVQLVESGGGLVQAGGSLRLSCAASGRTFVYNAMGWYRQAPGKEREMVSGITNGGSTNYADSVKGRFTISRDNAKNTVYLQMNSLKPEDTAVYYCAADSRVYPYYFGDFGYWGQGTQVTVSS”, for which the “polyreactivity (PSR sort gate)” value is recorded as “low polyreactivity”.

In the case of “QVQLVESGGGLVQAGGSLRLSCAASGRTFVYNAMGWYSQAPGKEREMVAAISFGGGNTYYADSVKGRFTISRDNAKNTVYLQMNSLIPEDTAVYYCAKAYIGYWGASWYYAYDYWGQGTQVTVSS”, the “polyreactivity (PSR sort gate)” value is on record as “low polyreactivity”.

For the sequence “QVQLVESGGGLVQAGGSLRLSCAASGRTFVYYAKGWYIQAPGKERELVATISSSDSTNYAYSVKGRFTISRDNAKNTVYLQMNSLKPEDTAVYYCAGGPKGGGYYDPFDYWGQGTQVNVSS”, the “polyreactivity (PSR sort gate)” value is “low polyreactivity”.

Turning to “QVQLVESGGGLVQAGGSLRLSCAASGRTFVYYAMGWYRQAPGKEREFVAAISRSGGRTSYADSVKGRFTISRDNAKNTVYLQMNSLKPEDTAVYYCAAEKRTQPSSREYYWGQGTQVTVSS”, the “polyreactivity (PSR sort gate)” value is given as “high polyreactivity”.

Regarding “QVQLVESGGGLVQAGGSLRLSCAASGRTFVYYAMGWYRQAPGKERELVAAITSGGSTYYADSVKGRFTISRDNAKNTVYLQMNSLKPEDTAVYYCNKARVRGARFDYWGQGTQVTVSS”, the “polyreactivity (PSR sort gate)” value is reported as “high polyreactivity”.

“QVQLVESGGGLVQAGGSLRLSCAASGRTFVYYAMGWYRQAPGKERELVATISRRGGGTYYADSVKGRFTISRDNEKNTVYLQMNSLKPEDTAVYYCAAAFSYYPRYDYWGQGTQVTVSS”: the “polyreactivity (PSR sort gate)” value is given as “high polyreactivity”.

With “QVQLVESGGGLVQAGGSLRLSCAASGRTFWANTMGWYRQAPGKERELVAAISKRGGSTYYADSVKGRFTISRDNAKNTVYLQMISLKPEDTAVFYCNADKSGWYDYWGQGTQVTVSS”, the “polyreactivity (PSR sort gate)” value was “high polyreactivity”.

For “QVQLVESGGGLVQAGGSLRLSCAASGRTFWDYGMGWYRQAPGKDRELDATISGNGGDTYYADSVKGRFTISRDTAKNTVYLQMNSLKPEDTAVYYCAADYRFYRTDRHYDYWGQGTQVTVSS”, the “polyreactivity (PSR sort gate)” value is “low polyreactivity”.

Regarding “QVQLVESGGGLVQAGGSLRLSCAASGRTFWFNDMGWYRQAPGKERELVAAISDTDGSTYYADSVKGLFTISRDNAKNTVYLQMNSLKPEDTAVYYCAAEAYYGYLYAYDYWGQGTQVTVSS”, the “polyreactivity (PSR sort gate)” value is “low polyreactivity”.

On to “QVQLVESGGGLVQAGGSLRLSCAASGRTFWFYDMGWYRQAPGKEREFVASITSSGGSTYYADSVKGRFTISRDIAKNTVYLQMNSLNPEDTAVYYCAASFYWTTRYSREYDYWGQGTQVTVSS”, for which the “polyreactivity (PSR sort gate)” value is recorded as “high polyreactivity”.

Turning to “QVQLVESGGGLVQAGGSLRLSCAASGRTFWFYTMGWYRKAPGKEREFVAAISSGGSTNYADSVKGRFTISRDNAKYSVYLQMNSLKPEDTALYYCNARFQVGQSEYAVWYYPKYDYWGQGTQVTVSS”, the “polyreactivity (PSR sort gate)” value is given as “low polyreactivity”.

Turning to “QVQLVESGGGLVQAGGSLRLSCAASGRTFWGYAMGWYRQAPGKERELVAAISSGGDTTYADSVKGRFTISRDNAKNTVYLQMNSLKPEDTAVYYCAADRWIPVYILGADGYDYWGQGTQVTVSS”, the “polyreactivity (PSR sort gate)” value is given as “low polyreactivity”.

On to “QVQLVESGGGLVQAGGSLRLSCAASGRTFWHNAMGWYRQEPGKERELVAAITIRGGRTYYADSVKGRFTISRDNAKNTVYLQMNSLKPEDTAVYYCAAPPFVKMDYWGQGTQVTVSS”, for which the “polyreactivity (PSR sort gate)” value is given as “high polyreactivity”.

Regarding “QVQLVESGGGLVQAGGSLRLSCAASGRTFWIYAMGWYRQAPGKERELVAAISRGGSTYADSVKGRFTISRDNAKNTVYLQMNSLKPEDTAVYYCAASTPQYQYYYWGQGTQVTVSS”, the “polyreactivity (PSR sort gate)” value is on record as “high polyreactivity”.

For the sequence “QVQLVESGGGLVQAGGSLRLSCAASGRTFWIYTMGWYRQAPGKEREFVAAISIRGGSTYYADSVKGRFTISRDNAKNTVYLQMNSLKPEDTAVYYCAADGGYSLWADDDYWGQGTQVTVSS”, the “polyreactivity (PSR sort gate)” value is listed as “low polyreactivity”.

On to “QVQLVESGGGLVQAGGSLRLSCAASGRTFWNYAMGWYRQAPGKERELVAVIRFSDGSTYYADSVKGRFTISRDNAKNTVYLQMNSLKPEDTAVYYCAADDLLDYDYWGQGTQVTVSS”, for which the “polyreactivity (PSR sort gate)” value is “low polyreactivity”.
